Where no end group is shown, it is not given here.
Columns and labels:
[1] = target: T1, human TROP-2 (hTROP-2) (human); experiment: FACS on PK-59 cells
T1 chain: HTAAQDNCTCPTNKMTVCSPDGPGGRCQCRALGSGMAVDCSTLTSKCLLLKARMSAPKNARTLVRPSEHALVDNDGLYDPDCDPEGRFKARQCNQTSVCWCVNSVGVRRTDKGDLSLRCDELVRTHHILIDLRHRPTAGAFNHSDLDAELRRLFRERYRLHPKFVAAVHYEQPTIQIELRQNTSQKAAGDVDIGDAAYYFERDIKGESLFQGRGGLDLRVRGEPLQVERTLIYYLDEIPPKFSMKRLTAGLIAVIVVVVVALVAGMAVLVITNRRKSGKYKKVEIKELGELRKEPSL

[2] = target: T2, Table 7 peptide No. 14 (human); experiment: PEPSCAN CLIPS peptide ELISA
T2 peptide: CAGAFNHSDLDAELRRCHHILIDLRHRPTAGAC

[3] = target: T3, Table 7 peptide No. 33 (human, not fully specified); experiment: PEPSCAN CLIPS peptide ELISA
T3 peptide: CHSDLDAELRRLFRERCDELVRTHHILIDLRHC

[4] = target: T4, Table 7 peptide No. 1 (human); experiment: PEPSCAN CLIPS peptide ELISA
T4 peptide: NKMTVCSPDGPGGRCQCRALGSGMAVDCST

[5] = target: T5, Table 7 peptide No. 4 (human, not fully specified); experiment: PEPSCAN CLIPS peptide ELISA
T5 peptide: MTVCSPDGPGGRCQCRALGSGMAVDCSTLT

[6] = target: T6, Table 7 peptide No. 28 (human, not fully specified); experiment: PEPSCAN CLIPS peptide ELISA
T6 peptide: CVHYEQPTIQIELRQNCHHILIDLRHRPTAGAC

[7] = target: T7, Table 7 peptide No. 2 (human); experiment: PEPSCAN CLIPS peptide ELISA
T7 peptide: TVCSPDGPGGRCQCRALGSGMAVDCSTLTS

[8] = target: T8, Table 7 peptide No. 15 (human); experiment: PEPSCAN CLIPS peptide ELISA
T8 peptide: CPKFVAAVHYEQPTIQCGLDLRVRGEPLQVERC

[9] = target: T9, Table 7 peptide No. 23 (human, not fully specified); experiment: PEPSCAN CLIPS peptide ELISA
T9 peptide: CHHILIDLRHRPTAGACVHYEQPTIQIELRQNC

[10] = target: T10, Table 7 peptide No. 9 (human, not fully specified); experiment: PEPSCAN CLIPS peptide ELISA
T10 peptide: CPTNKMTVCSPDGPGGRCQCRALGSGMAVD

[11] = target: T11, Table 7 peptide No. 21 (human); experiment: PEPSCAN CLIPS peptide ELISA
T11 peptide: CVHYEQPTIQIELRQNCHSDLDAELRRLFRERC

[12] = target: T12, Table 7 peptide No. 30 (human, not fully specified); experiment: PEPSCAN CLIPS peptide ELISA
T12 peptide: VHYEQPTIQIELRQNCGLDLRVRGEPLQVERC

[13] = target: T13, Table 7 peptide No. 8 (human, not fully specified); experiment: PEPSCAN CLIPS peptide ELISA
T13 peptide: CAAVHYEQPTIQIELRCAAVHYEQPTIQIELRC

[14] = target: T14, Table 7 peptide No. 19 (human); experiment: PEPSCAN CLIPS peptide ELISA
T14 peptide: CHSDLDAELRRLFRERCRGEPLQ

[15] = target: T15, Table 7 peptide No. 20 (human); experiment: PEPSCAN CLIPS peptide ELISA
T15 peptide: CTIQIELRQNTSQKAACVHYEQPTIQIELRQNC

[16] = target: T16, Table 7 peptide No. 24 (human, not fully specified); experiment: PEPSCAN CLIPS peptide ELISA
T16 peptide: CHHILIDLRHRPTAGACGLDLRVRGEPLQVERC

[17] = target: T17, Table 7 peptide No. 32 (human, not fully specified); experiment: PEPSCAN CLIPS peptide ELISA
T17 peptide: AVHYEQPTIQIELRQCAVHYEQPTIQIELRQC

[18] = target: T18, Table 7 peptide No. 31 (human, not fully specified); experiment: PEPSCAN CLIPS peptide ELISA
T18 peptide: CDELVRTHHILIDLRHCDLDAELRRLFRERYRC

[19] = target: T19, Table 7 peptide No. 29 (human, not fully specified); experiment: PEPSCAN CLIPS peptide ELISA
T19 peptide: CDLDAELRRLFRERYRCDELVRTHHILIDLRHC

[20] = target: T20, Table 7 peptide No. 22 (human); experiment: PEPSCAN CLIPS peptide ELISA
T20 peptide: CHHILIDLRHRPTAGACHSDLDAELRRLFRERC

[21] = target: T21, Table 7 peptide No. 7 (human, not fully specified); experiment: PEPSCAN CLIPS peptide ELISA
T21 peptide: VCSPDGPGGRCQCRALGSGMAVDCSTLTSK

[22] = target: T22, Table 7 peptide No. 12 (human); experiment: PEPSCAN CLIPS peptide ELISA
T22 peptide: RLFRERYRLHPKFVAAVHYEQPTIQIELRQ

[23] = target: T23, Table 7 peptide No. 10 (human); experiment: PEPSCAN CLIPS peptide ELISA
T23 peptide: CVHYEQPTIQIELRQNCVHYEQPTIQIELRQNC

[24] = target: T24, Table 7 peptide No. 27 (human, not fully specified); experiment: PEPSCAN CLIPS peptide ELISA
T24 peptide: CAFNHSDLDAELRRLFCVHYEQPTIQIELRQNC

[25] = target: T25, Table 7 peptide No. 25 (human, not fully specified); experiment: PEPSCAN CLIPS peptide ELISA
T25 peptide: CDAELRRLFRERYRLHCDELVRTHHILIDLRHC

[26] = target: T26, Table 7 peptide No. 17 (human); experiment: PEPSCAN CLIPS peptide ELISA
T26 peptide: FQGRGGLDLRVRGEP

[27] = target: T27, Table 7 peptide No. 18 (human); experiment: PEPSCAN CLIPS peptide ELISA
T27 peptide: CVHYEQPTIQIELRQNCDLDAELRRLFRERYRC

[28] = target: T28, Table 7 peptide No. 6 (human, not fully specified); experiment: PEPSCAN CLIPS peptide ELISA
T28 peptide: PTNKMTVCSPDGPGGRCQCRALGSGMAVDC

[29] = target: T29, Table 7 peptide No. 13 (human); experiment: PEPSCAN CLIPS peptide ELISA
T29 peptide: AVHYEQPTIQIELRQ

[30] = target: T30, Table 7 peptide No. 3 (human, not fully specified); experiment: PEPSCAN CLIPS peptide ELISA
T30 peptide: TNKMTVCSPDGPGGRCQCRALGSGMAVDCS

[31] = target: T31, Table 7 peptide No. 11 (human); experiment: PEPSCAN CLIPS peptide ELISA
T31 peptide: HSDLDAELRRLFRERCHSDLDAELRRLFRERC

[32] = target: T32, Table 7 peptide No. 26 (human, not fully specified; cysteine pairing not given here); experiment: PEPSCAN CLIPS peptide ELISA
T32 peptide: CVHYEQPTIQIELRQNC

[33] = target: T33, Table 7 peptide No. 16 (human); experiment: PEPSCAN CLIPS peptide ELISA
T33 peptide: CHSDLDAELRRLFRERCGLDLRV

[34] = target: T34, recombinant protein of the extracellular region of hTROP-2 (human); experiment: ELISA of free antibody after equilibration with antigen in solution
T34 sequence: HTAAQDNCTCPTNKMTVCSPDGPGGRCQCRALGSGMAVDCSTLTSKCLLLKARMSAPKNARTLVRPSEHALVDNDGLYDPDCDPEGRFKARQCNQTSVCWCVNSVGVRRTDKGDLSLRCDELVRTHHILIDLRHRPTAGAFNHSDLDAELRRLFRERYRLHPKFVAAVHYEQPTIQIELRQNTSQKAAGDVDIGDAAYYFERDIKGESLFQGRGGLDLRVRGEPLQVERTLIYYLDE

[35] = target: T1, human TROP-2 (hTROP-2); experiment: FACS on BxPC-3 cells

mean fluorescence intensity, times that with PE-labeled anti-mouse IgG only [1]: 44 times | binding of K5-70 [2]: 624 | binding of K5-70 [3]: 466 | binding of K5-70 [4]: 2740 | binding of K5-70 [5]: 2400 | binding of K5-70 [6]: 473 | binding of K5-70 [7]: 2600 | binding of K5-70 [8]: 579 | binding of K5-70 [9]: 489 | binding of K5-70 [10]: 839 | binding of K5-70 [11]: 511 | binding of K5-70 [12]: 470 | binding of K5-70 [13]: 876 | binding of K5-70 [14]: 519 | binding of K5-70 [15]: 513 | binding of K5-70 [16]: 488 | binding of K5-70 [17]: 468 | binding of K5-70 [18]: 469 | binding of K5-70 [19]: 472 | binding of K5-70 [20]: 489 | binding of K5-70 [21]: 932 | binding of K5-70 [22]: 687 | binding of K5-70 [23]: 825 | binding of K5-70 [24]: 478 | binding of K5-70 [25]: 483 | binding of K5-70 [26]: 538 | binding of K5-70 [27]: 524 | binding of K5-70 [28]: 1390 | binding of K5-70 [29]: 642 | binding of K5-70 [30]: 2560 | binding of K5-70 [31]: 725 | binding of K5-70 [32]: 483 | binding of K5-70 [33]: 538 | Kd [34]: 6.8 pM | mean fluorescence intensity, times that with PE-labeled anti-mouse IgG only [35]: 45 times
B1: anti-hTROP-2 monoclonal antibody K5-70 (antibody, V domains shown)
VH: QVQLQQPGAELVRPGASVKLSCKASGYTFTIYWINWVKQRPGQGLEWIGNIYPSDSYTNYNQKFKDKATLTVDKSSSTAYMQLSSPTSEDSAVYYCTRTSMADYWGQGTTLTVSS
VL: DILLTQSPAILSVSPGERVSFSCRASQSIGTSIHWYQQRTNGSPRLLIKYASESISGIPSRFSGSGSGTDFTLSINSVESEDIADYYCQQSNSWPFTFGSGTKLEIK
